Measurements as given in patent publication US20230212285A1 (published 2023).
Read-outs that look alike come from different tables or passages of the source.

Assays:
[1] = molecular target: cynomolgus C-KIT on stably transfected CHO-K1 cells (cynomolgus monkey); test: cell-based or functional assay
[2] = molecular target: T1, cynomolgus monkey C-KIT-Fc protein (cynomolgus monkey); test: HTRF competition vs terbium-labelled h37M IgG1
T1 construct: also called cyno C-KIT-Fc; cyno C-KIT

[3] = molecular target: T1, cynomolgus monkey C-KIT-Fc protein; test: direct ELISA, IgG at 1 µg/ml
[4] = molecular target: T1, cynomolgus monkey C-KIT-Fc protein; test: HTRF competition vs terbium-labelled h37M IgG1; remark: listed apart in the source

Binder | IC50 [2] [µg/mL] | IC50 [4] [µg/mL] | other results
MH1 IgG1-3M (antibody, V domains shown) VH: QVQLVQSGAEVKKPGASVKVSCKASGYTFTDYYMNWVRQAPGQGLEWMGRIYPGSGNTYYAQKFQGRVTMTRDTSTSTVYMELSSLRSEDTAVYYCARGVYYYDYWGQGTLVTVSS VL: DIQMTQSPSSLSASVGDRVTITCRASQGIRTNLAWFQQKPGKAPKSLIYAASSLQSGVPSRFSGSGSGTDFTLTISSLQPEDFATYYCQQYNSYPRTFGGGTKVEIK |  |  | Cyno C-KIT CHO FabZAP IC50 (pM) [1]: 14 pM
MH5-DI IgG1-3M (antibody, V domains shown) VH: QVQLVQSGAEVKKPGASVKVSCKASGYTFTDYYMNWVRQAPGQGLEWMGRIYPGSGNTYYAQKFQGRVTMTRDTSTSTVYMELSSLRSEDTAVYYCARGVYYYDYWGQGTLVTVSS VL: DIQMTQSPSSLSASVGDRVTITCRASQGIRTNLAWFQQKPGKAPKSLIYAASSLQSGVPSRFSGSGSGTDFTLTISSLQPEDFATYYCQQYANYPRTFGGGTKVEIK |  |  | Cyno C-KIT CHO FabZAP IC50 (pM) [1]: 13.5 pM
E-C7 (antibody, human IgG1, V domains shown, human IgG1; also called C-KIT-E-C7) VH: QVQLVQSGAEVKKPGASVKVSCKASGYTFTDYYMNWVRQAPGQGLEWMGRIYPGSGNTYYAQKFQGRVTMTRDTSTSTVYMELSSLRSEDTAVYYCARGVYYYDYWGQGTLVTVSS VL: DIQMTQSPSSLSASVGDRVTITCRASQGIRTNLAWFQQKPGKAPKSLIYSASSLQSGVPSRFSGSGSGTDFTLTISSLQPEDFATYYCQQYNSYPRTFGGGTKVEIK | 0.051 |  | OD450 nm [3]: > 2 OD450 nm
MH5.22 (antibody, human IgG1, V domains shown, graft frameworks; substitutions derived; human IgG1; also called C-KIT-MH5.22) VH: QVQLVQSGAEVKKPGASVKVSCKASGYTFTDFYMNWVRQAPGQGLEWMGRIYPASGNTYYAQKFQGRVTMTRDTSTSTVYMELSSLRSEDTAVYYCARGVWYYDYWGQGTLVTVSS VL: DIQMTQSPSSLSASVGDRVTITCRASQGIRTNLAWFQQKPGKAPKSLIYAASSLQSGVPSRFSGSGSGTDFTLTISSLQPEDFATYYCQQYANYPRTFGGGTKVEIK |  | 0.164 | OD450 nm [3]: > 2 OD450 nm
MH5 IgG1 (antibody, V domains shown, human IgG1; also called C-KIT-MH5) VH: QVQLVQSGAEVKKPGASVKVSCKASGYTFTDYYMNWVRQAPGQGLEWMGRIYPGSGNTYYAQKFQGRVTMTRDTSTSTVYMELSSLRSEDTAVYYCARGVYYYDYWGQGTLVTVSS VL: DIQMTQSPSSLSASVGDRVTITCRASQGIRTNLAWFQQKPGKAPKSLIYSASSLQSGVPSRFSGSGSGTDFTLTISSLQPEDFATYYCQQYANYPRTFGGGTKVEIK | 0.036 | 0.058 | OD450 nm [3]: > 2 OD450 nm
C-B12 (antibody, human IgG1, V domains shown, graft frameworks; substitutions derived; human IgG1; also called C-KIT-C-B12) VH: QVQLVQSGAEVKKPGASVKVSCKASGYTFTDYYMNWVRQAPGQGLEWMGRIYPGSGNTYYAQKFQGRVTMTRDTSTSTVYMELSSLRSEDTAVYYCARGVYEFDYWGQGTLVTVSS VL: DIQMTQSPSSLSASVGDRVTITCRASQGVRNNLAWFQQKPGKAPKSLIYAASYRQSGVPSRFSGSGSGTDFTLTISSLQPEDFATYYCQQYNSYPRTFGGGTKVEIK | 0.166 |  | 
C-A7 (antibody, human IgG1, V domains shown, graft frameworks; substitutions derived; human IgG1; also called C-KIT-C-A7) VH: QVQLVQSGAEVKKPGASVKVSCKASGYTFTDYYMNWVRQAPGQGLEWIGRIYPGSGNTYYAQKFQGRVTMTRDTSTSTVYMELSSLRSEDTAVYYCARGVYYFDSWGQGTLVTVSS VL: DIQMTQSPSSLSASVGDRVTITCRASQGVRNNVAWFQQKPGKAPKSLIYYASSLQSGVPSRFSGSGSGTDFTLTISSLQPEDFATYYCQQYNSYPRTFGGGTKVEIK | 0.081 |  | 
MH1 IgG1 (antibody, V domains shown, human IgG1; also called IgG1-MH1; C-KIT-MH1) VH: QVQLVQSGAEVKKPGASVKVSCKASGYTFTDYYMNWVRQAPGQGLEWMGRIYPGSGNTYYAQKFQGRVTMTRDTSTSTVYMELSSLRSEDTAVYYCARGVYYYDYWGQGTLVTVSS VL: DIQMTQSPSSLSASVGDRVTITCRASQGIRTNLAWFQQKPGKAPKSLIYAASSLQSGVPSRFSGSGSGTDFTLTISSLQPEDFATYYCQQYNSYPRTFGGGTKVEIK |  |  | OD450 nm [3]: > 2 OD450 nm
E-C2 (antibody, human IgG1, V domains shown, human IgG1; also called C-KIT-E-C2) VH: QVQLVQSGAEVKKPGASVKVSCKASGYTFTDYYMNWVRQAPGQGLEWMGRIYPGSGNTYYAQKFQGRVTMTRDTSTSTVYMELSSLRSEDTAVYYCARGVYYLDYWGQGTLVTVSS VL: DIQMTQSPSSLSASVGDRVTITCRASQGIRTNVAWLQQKPGKAPKSLIYSASYRQSGVPSRFSGSGSGTDFTLTISSLQPEDFATYYCQQYNSYPRTFGGGTKVEIK |  |  | OD450 nm [3]: > 2 OD450 nm
MH5.34 (antibody, human IgG1, V domains shown, graft frameworks; substitutions derived; human IgG1; also called C-KIT-MH5.34) VH: QVQLVQSGAEVKKPGASVKVSCKASGYTFTNYYMNWVRQAPGQGLEWMGRIYPASGNTYYAQKFQGRVTMTRDTSTSTVYMELSSLRSEDTAVYYCARGVWYFDSWGQGTLVTVSS VL: DIQMTQSPSSLSASVGDRVTITCRASQGIRTNLAWFQQKPGKAPKSLIYAASSLQSGVPSRFSGSGSGTDFTLTISSLQPEDFATYYCQQYANYPRTFGGGTKVEIK |  | 0.532 | 
MH5.24 (antibody, human IgG1, V domains shown, graft frameworks; substitutions derived; human IgG1; also called C-KIT-MH5.24) VH: QVQLVQSGAEVKKPGASVKVSCKASGYTFTDFYMNWVRQAPGQGLEWMGRIYPASGNTYYAQKFQGRVTMTRDTSTSTVYMELSSLRSEDTAVYYCARGVWYFDTWGQGTLVTVSS VL: DIQMTQSPSSLSASVGDRVTITCRASQGIRTNLAWFQQKPGKAPKSLIYAASSLQSGVPSRFSGSGSGTDFTLTISSLQPEDFATYYCQQYANYPRTFGGGTKVEIK |  | 2.74 | 

More lines, main results first:

IC50 [2] [µg/mL] | IC50 [4] [µg/mL] | Binder | other results
0.097 |  | E-E10 (antibody, human IgG1, V domains shown, graft frameworks; substitutions derived; human IgG1; also called C-KIT-E-E10) VH: QVQLVQSGAEVKKPGASVKVSCKASGYTFTDYYMNWVRQAPGQGLEWMGRIYPGSGNTYYAQKFQGRVTMTRDTSTSTVYMELSSLRSEDTAVYYCARGVWYFDYWGQGTLVTVSS VL: DIQMTQSPSSLSASVGDRVTITCRASQGVRTNVAWFQQKPGKAPKSLIYSASSLQSGVPSRFSGSGSGTDFTLTISSLQPEDFATYYCQQYNSYPRTFGGGTKVEIK | 
 | 3.26 | MH5.23 (antibody, human IgG1, V domains shown, graft frameworks; substitutions derived; human IgG1; also called C-KIT-MH5.23) VH: QVQLVQSGAEVKKPGASVKVSCKASGYTFTDFYMNWVRQAPGQGLEWMGRIYPASGNTYYAQKFQGRVTMTRDTSTSTVYMELSSLRSEDTAVYYCARGVWYFDSWGQGTLVTVSS VL: DIQMTQSPSSLSASVGDRVTITCRASQGIRTNLAWFQQKPGKAPKSLIYAASSLQSGVPSRFSGSGSGTDFTLTISSLQPEDFATYYCQQYANYPRTFGGGTKVEIK | 
0.101 |  | MH11 (antibody, human IgG1, V domains shown, graft frameworks; substitutions derived; human IgG1; also called C-KIT-MH11) VH: QVQLVQSGAEVKKPGASVKVSCKASGYTFTDYYMNWVRQAPGQGLEWMGRIYPGSGNTYYAQKFQGRVTMTRDTSTSTVYMELSSLRSEDTAVYYCARGVYYYDYWGQGTLVTVSS VL: DIQMTQSPSSLSASVGDRVTITCRASQGIRTNLAWFQQKPGKAPKSLIYAASSLQSGVPSRFSGSGSGTDFTLTISSLQPEDFATYYCQQYNAYPRTFGGGTKVEIK | 
 | 0.633 | MH5.1 (antibody, human IgG1, V domains shown, graft frameworks; substitutions derived; human IgG1; also called C-KIT-MH5.1) VH: QVQLVQSGAEVKKPGASVKVSCKASGYTFTNYYMNWVRQAPGQGLEWMGRIYPGTGNTYYAQKFQGRVTMTRDTSTSTVYMELSSLRSEDTAVYYCARGVWYYDYWGQGTLVTVSS VL: DIQMTQSPSSLSASVGDRVTITCRASQGIRTNLAWFQQKPGKAPKSLIYAASSLQSGVPSRFSGSGSGTDFTLTISSLQPEDFATYYCQQYANYPRTFGGGTKVEIK | 
0.059 |  | D-A10 (antibody, human IgG1, V domains shown, graft frameworks; substitutions derived; human IgG1; also called C-KIT-D-A10) VH: QVQLVQSGAEVKKPGASVKVSCKASGYTFTDYYMNWVRQAPGQGLEWMGRIYPGSGNTYYAQKFQGRVTMTRDTSTSTVYMELSSLRSEDTAVYYCARGVYYFDTWGQGTLVTVSS VL: DIQMTQSPSSLSASVGDRVTITCRASQGVRTNLAWFQQKPGKAPKSLIYAASSRQSGVPSRFSGSGSGTDFTLTISSLQPEDFATYYCQQYNSYPRTFGGGTKVEIK | 
0.079 |  | F-C5 (antibody, human IgG1, V domains shown, human IgG1; also called C-KIT-F-C5) VH: QVQLVQSGAEVKKPGASVKVSCKASGYTFTDYYMNWVRQAPGQGLEWMGRIYPGSGNTYYAQKFQGRVTMTRDTSTSTVYMELSSLRSEDTAVYYCARGVYYFDEWGQGTLVTVSS VL: DIQMTQSPSSLSASVGDRVTITCRASQGVRTNLAWFQQKPGKAPKSLIYAASSRQSGVPSRFSGSGSGTDFTLTISSLQPEDFATYYCQQYNSYPRTFGGGTKVEIK | 
 | 0.254 | MH5.2 (antibody, human IgG1, V domains shown, graft frameworks; substitutions derived; human IgG1; also called C-KIT-MH5.2) VH: QVQLVQSGAEVKKPGASVKVSCKASGYTFTDFYMNWVRQAPGQGLEWMGRIYPGTGNTYYAQKFQGRVTMTRDTSTSTVYMELSSLRSEDTAVYYCARGVWYYDYWGQGTLVTVSS VL: DIQMTQSPSSLSASVGDRVTITCRASQGIRTNLAWFQQKPGKAPKSLIYAASSLQSGVPSRFSGSGSGTDFTLTISSLQPEDFATYYCQQYANYPRTFGGGTKVEIK | 
 | 0.785 | MH5.35 (antibody, human IgG1, V domains shown, graft frameworks; substitutions derived; human IgG1; also called C-KIT-MH5.35) VH: QVQLVQSGAEVKKPGASVKVSCKASGYTFTNYYMNWVRQAPGQGLEWMGRIYPASGNTYYAQKFQGRVTMTRDTSTSTVYMELSSLRSEDTAVYYCARGVWYFDTWGQGTLVTVSS VL: DIQMTQSPSSLSASVGDRVTITCRASQGIRTNLAWFQQKPGKAPKSLIYAASSLQSGVPSRFSGSGSGTDFTLTISSLQPEDFATYYCQQYANYPRTFGGGTKVEIK | 
0.121 |  | F-F2 (antibody, human IgG1, V domains shown, graft frameworks; substitutions derived; human IgG1; also called C-KIT-F-F2) VH: QVQLVQSGAEVKKPGASVKVSCKASGYTFTDYYMNWVRQAPGQGLEWMGRIYPGSGNTYYAQKFQGRVTMTRDTSTSTVYMELSSLRSEDTAVYYCARGVYYQDYWGQGTLVTVSS VL: DIQMTQSPSSLSASVGDRVTITCRASQGVRTNVAWFQQKPGKAPKSLIYAASSRQSGVPSRFSGSGSGTDFTLTISSLQPEDFATYYCQQYNSYPRTFGGGTKVEIK | 
